Values of other authors in publication PMC3074115.

Key:
[1] = biological target: Ferrochelatase (Homo sapiens) (UniProt P22830); test: ITC
IscU (Escherichia coli) = IscU (Escherichia coli) (UniProt P0ACD4); test: ITC and SPR
Sequence of IscU (Escherichia coli) (P0ACD4 whole entry): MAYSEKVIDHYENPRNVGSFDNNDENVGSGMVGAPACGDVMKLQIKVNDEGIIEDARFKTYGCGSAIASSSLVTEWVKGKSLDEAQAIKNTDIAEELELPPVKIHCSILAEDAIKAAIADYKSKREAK

Sequence of Ferrochelatase (Homo sapiens) (P22830 55-423): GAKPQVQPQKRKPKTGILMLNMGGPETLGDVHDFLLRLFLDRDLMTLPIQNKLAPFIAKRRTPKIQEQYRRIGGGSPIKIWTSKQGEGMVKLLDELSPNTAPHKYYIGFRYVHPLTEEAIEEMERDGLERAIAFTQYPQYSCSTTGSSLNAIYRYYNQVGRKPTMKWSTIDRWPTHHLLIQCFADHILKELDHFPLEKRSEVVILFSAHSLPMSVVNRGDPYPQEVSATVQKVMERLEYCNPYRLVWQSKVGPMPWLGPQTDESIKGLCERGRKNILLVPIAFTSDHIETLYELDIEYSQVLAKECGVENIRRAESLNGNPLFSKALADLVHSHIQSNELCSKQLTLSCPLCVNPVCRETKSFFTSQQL
Sequence of IscS (P0A6B7 whole entry): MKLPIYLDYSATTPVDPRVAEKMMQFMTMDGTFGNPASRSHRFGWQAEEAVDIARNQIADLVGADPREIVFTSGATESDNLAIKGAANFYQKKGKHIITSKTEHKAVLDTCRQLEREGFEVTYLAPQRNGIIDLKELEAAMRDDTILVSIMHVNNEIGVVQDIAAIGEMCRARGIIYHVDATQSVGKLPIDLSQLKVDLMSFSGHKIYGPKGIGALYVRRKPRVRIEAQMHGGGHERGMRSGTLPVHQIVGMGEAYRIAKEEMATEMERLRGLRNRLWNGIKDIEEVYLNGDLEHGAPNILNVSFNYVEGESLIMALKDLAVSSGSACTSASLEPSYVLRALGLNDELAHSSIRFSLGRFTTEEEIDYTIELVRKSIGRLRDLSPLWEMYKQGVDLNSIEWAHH

**Q.** For Frataxin (from UniProt Q16595), which Kd [1] is on record?
**A.** 17 nM

**Q.** With IscS (from UniProt P0A6B7) as the substance, how does the Kd (IscU (Escherichia coli)) read?
**A.** 2000 nM
